Data from the DeepSol protein solubility set.

Experiment: soluble on expression in E. coli; label from the status in PepcDB or PDB records

Sequence | soluble on expression in E. coli
MDLFCLGRDLQTRPQSKEALSAIILAPMEWDLSDLYSGPQDPRILQDLEAALALAQGLDPQGLLDPKGAQDLLERYEKALELAYKPLNYASLYFATRTQDPEAKALLDRVRSRFTEVRNRLVPLEVALRKLPEEAFQRLLAHPGLADLGHFLKRQRAYAPHTLSEREEELLNLKALVGRSAWSQFYTEYTGRFRFRVGERELTEMEVRALRRDPDPEVRREAHRALYGKLLAEAPTLSAVFNAVYLDYLQDLRLRGYRHPLEPVALRDEVEVREIEALLEATKAHYPLVERYYRWKAGRLGREKTPSEDLLAPLGEKPKVPFAEARALVLEAFRRFSPELAEIAREFFEKRWIDVYPRPGKRGGAFCSGGLPSTHPYILLNHTDDLDSAHTLAHELGHGVHFYLARKQRLLNFGASTPLAETASVFAEILLDDLLLERLSGEEKTLLLAERVEDAINTLFRQVMYTFFEQRSLEARKEAALSPEAFHALWDEEQRRLYGEAVAWTELDRAAWAGIPHFVHYRFYTYSYALGYLVVLALYGKYREEGEAFVPKYLRILEAGESASPKEILAEAGVELGSEAFFRYGFGVLESWLKALP | soluble
MDLHELTARLHAIRDRNDWRQFHSPKNLAMAASVEMAELVEIFQWLTEDQSRTLSAEQLEHAGQEVGDIVLYLLLFCGETGLDLEQVVRAKLADCERRFLP | soluble
MDLNATNYIRGCQSKTYDGKIFPGKGGEKQWICKDTIIHGDTNGACIPPRTQNLCVGELWDKSYGGRSNIKNDTKELLKEKIKNAIHKETELLYEYHDTGTAIISKNDKKGQKGKNDPNGLPKGFCHAVQRSFIDYKNMILGTSVNIYEHIGKLQEDIKKIIEKGTPQQKDKIGGVGSSTENVNAWWKGIEREMWDAVRCAITKINKKNNNSIFNGDECGVSPPTGNDEDQSVSWFKEWGEQFCIERLRYEQNIREACTINGKNEKKCINSKSGQGDKIQGACKRKCEKYKKYISEKKQEWDKQKTKYENKYVGKSASDLLKENYPECISANFDFIFNDNIEYKTYYPYGDYSSICSCEQVK | soluble
MDLPQKKKFTESERAALAKKLDDDLDQFMEEMAARKSDKKEERKPFDFDDWCKEIDQHPAFMTEMPTDGKYQDTIEALQSMKYDKEDDEDKQMNAEHHKEEGNKHFKFKKYRWATDCYSNGIKENSPDRKLNAVLYFNRAAAQKHLGNLRSAIKDCSMGRKFDPTHLKGVIRGAECLLELEYAKDALNWIESSKKIFAFTKETSDTPDLTDDEKKFIDQLETLRVKSVELSLKEERDKRKSRAEERKETESKKQLLDALKERNLNLCPRVPFDRPELMDMARLTVSLPLMHSHECVKFDDDLNLVWPILLQYPEAGQTDVLTETNELTTVGELLKEVLNSPAQWDPEHKFNFENVRFFVSDEYDEYLMEVYEWNDFKSVLSMPGYQIKQGLPVIMIMTKEKAASSLEALAEDENRYVAK | soluble
MDLSAVRFDEKGLVPVVVQDARTGEVLTLAYANREALEETLRTRRSTFFSRSRQALWRKGETSGHTQEVVEVLLDCDGDAVVYRVLPQGPACHTGERTCFHRALLEGEKDLGFVVGQVYATIKERLRTLPEGSYVARMHQAGLDRILKKIGEEAGEVILAAKNQNPEELRHEAADLLFHLLLTLAELGLTPEDLAKTLWERHRPRSPYDGSHGN | soluble
MDLTKLTFESVFGGSDVPMKPSRSEDNKTPRNRTDLEMFLKKTPLMVLEEAAKAVYQKTPTWGTVELPEGFEMTLILNEITVKGQATSKKAARQKAAVEYLRKVVEKGKHEIFFIPGTTKEEALSNIDQISDKAEELKRSTSDAVQDNDNDDSIPTSAEFPPGISPTENWVGKLQEKSQKSKLQAPIYEDSKNERTERFLVICTMCNQKTRGIRSKKKDAKNLAAWLMWKALEDGIESLESYDMVDVIENLEEAEHLLEIQDQASKIKDKHSALIDILSDKKRFSDYSMDFNVLSVSTMGIHQVLLEISFRRLVSPDPDDLEMGAEHTQTEEIMKATAEKEKLRKKNMPDSGPLVFAGHGSSAEEAKQCACKSAIIHFNTYDFTD | not soluble
MDLVFRPERYPFLTQDLPGVGGEIRVEPEDFQVEEVPAYLPKGEGEHLYLLLEKEGRTTREVLEFLRDEVGVPEKEIGVAGLKDKRAKTRQWFSIPRKYEDALCLLENLQGVRLLAADLHTNKLRTGHLKGNRFHILIRRPKGGVAEAEAVLKRLAEKGVPNYYGPQRFGLGGLNPVRGYKLVKEGKGRGSPWLKRFLIGSLQSLLFNDWVALRMALGLYDRVVPGDWAKKHATGGEFLVEDPGEAERALRLEISATGPLFGKKYPEAQGEARAIEDEVLARYGLKREEFRARRGARRPIRVPLAEWKVEEAPEGLWLSFFLPKGSYATSLLREVMKVEALDHLEAEPAPEDAEGL | soluble
